Literature values, collected in paper PMC6457457.
pKd: −log10 of the molar value.

Target: LC8 (Homo sapiens) (UniProt P63167)
Chain of UniProt P63167 (P63167 whole entry): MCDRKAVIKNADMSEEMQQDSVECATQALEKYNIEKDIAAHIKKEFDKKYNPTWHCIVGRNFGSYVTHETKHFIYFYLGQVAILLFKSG

VP35 (from UniProt Q6V1Q9)
pKd: 7.08
